In assay [1] the target is T1, human GITR (human, UniProt Q9Y5U5 26-241).
T1 sequence: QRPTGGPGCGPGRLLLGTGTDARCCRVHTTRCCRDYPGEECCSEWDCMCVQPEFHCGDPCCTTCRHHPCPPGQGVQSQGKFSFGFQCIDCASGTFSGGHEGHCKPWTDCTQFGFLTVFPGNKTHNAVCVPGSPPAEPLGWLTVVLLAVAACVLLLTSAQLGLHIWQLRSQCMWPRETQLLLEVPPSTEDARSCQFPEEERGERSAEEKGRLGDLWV
In words: cell-based or functional assay.

Assay [2] deals with T1, human GITR. In words: flow cytometry, human T cell binding. Background: In flow cytometry, cells or beads pass a laser one at a time.
For assay [3], the target named is T2, cynomolgus monkey GITR (cynomolgus monkey, UniProt Q9Y5U5 26-241 (human entry)).
T2 construct: also called cyno GITR
T2 chain: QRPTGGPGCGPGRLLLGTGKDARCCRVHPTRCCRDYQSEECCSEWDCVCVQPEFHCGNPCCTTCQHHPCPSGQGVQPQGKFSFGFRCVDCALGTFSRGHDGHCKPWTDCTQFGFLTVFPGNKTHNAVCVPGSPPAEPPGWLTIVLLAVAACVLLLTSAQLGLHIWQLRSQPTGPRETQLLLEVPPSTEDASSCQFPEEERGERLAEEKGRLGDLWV
The assay is described as follows: flow cytometry, cyno T cell binding.

The target in assay [4] is T1, human GITR. In words: flow cytometry on activated human T cells.
For assay [5], the target named is T1, human GITR. The assay is described as follows: cell-based or functional assay. This is another data set of the same source.
In assay [6] the target is T2, cynomolgus monkey GITR. In words: cyno T cell binding EC50 against human T cell binding EC50.

Read-outs that look alike come from different tables or passages of the source.

B1: 5H7v2 (antibody, human IgG1, kappa, V domains shown)
VH: QVQLQESGPGLVKPSETLSLTCTVSGGSISSGGYFWSWIRQPPGKGLEWIGYIYYSGTTYYNPSLKSRVTISIDTSKNQFSLKLSSVTAADTAVYYCARDLFYYDTSGPRGFDPWGQGTLVTVSS
VL: EIVLTQSPGTLSLSPGERATLSCRASQTVSSNYLAWYQQKPGQAPRLLIYGSSTRATGIPDRFSGSGSGTDFTLTISRLEPEDFAVYYCQQYDSSPWTFGQGTKVEIKR
notes: Engineered variant; also called Ab26; SS-13807
By EC50 is commonly meant the concentration that produces a half-maximal response. On to B1, for which, in the assay with human GITR [1], the “Activation EC50 ng/mL (IFNg secretion)” value was 1.6 ng/mL. Further, the “Proliferation (Fold over CD3)” value with human GITR [1] and in the assay with human GITR [5] was 3.2 fold over CD3 in each case. Also, the figures for the concentration giving a half-maximal response (EC50) with human GITR [2], with cynomolgus monkey GITR [3] and with human GITR [4] were 0.164 µg/mL, 0.619 µg/mL and 0.279 µg/mL, respectively. Further, in the assay with human GITR [5], the “Proliferation EC50” value amounted to 0.011 µg/mL. Further, the “Cyno:Hu Binding EC50 Ratio” value in the assay with cynomolgus monkey GITR [6] came out at 3.7 ratio.

The record behind these values is patent US20150064204A1 (Amgen, published 2015).
